pKd: −log10 of the molar value.

Assay [1] deals with human polyclonal IgG (Gammanorm) (human). The assay is described as follows: column breakthrough, ligand 9.7 mg/ml; after 24 h 1.0 M NaOH.
For assay [2] the target is unchanged. Kind of assay: column breakthrough, 1.0 M NaOH; ratio to reference Zvar4.
Assay [3] shares this target. The assay is described as follows: column breakthrough; ratio to reference Zvar4.
For assay [4] the target is unchanged. The assay is described as follows: column breakthrough, agarose beads, ligand 9.7 mg/ml, 6 min residence.
The target is the same in assay [5]. The assay is described as follows: column breakthrough, ligand 9.7 mg/ml; after 24 h 0.5 M NaOH.
For assay [6] the target is unchanged. Kind of assay: column breakthrough, agarose beads, ligand 9.7 mg/ml, 6 min residence. The source holds these as a separate data set.
Assay [7] shares this target. The assay is described as follows: SPR, ligand on chip; CIP cycles 0.5 M NaOH.
Assay [8] shares this target. The assay is described as follows: SPR, 1 M NaOH; ratio to reference Zvar4.
Assay [9] shares this target. The assay is described as follows: SPR; ratio to reference Zvar4.
Assay [10] has the same target. Kind of assay: SPR, ligand on chip; CIP cycles 1 M NaOH.
For assay [11] the target is unchanged. Kind of assay: column breakthrough, ligand […]; after 24 h 0.5 M NaOH.
For assay [12] the target is unchanged. The assay is described as follows: column breakthrough, ligand 7.0 mg/ml; after 24 h 0.5 M NaOH.
For assay [13] the target is unchanged. Kind of assay: column breakthrough, agarose beads, ligand 7.0 mg/ml, 6 min residence.
The target is the same in assay [14]. The assay is described as follows: column breakthrough, agarose beads, ligand […], 6 min residence.
Assay [15] deals with IgG1 monoclonal antibody (probe molecule in the Biacore kinetics). The assay is described as follows: SPR (Biacore), ligand on CM5 chip, IgG1 mAb as probe; exponent read as 10^-5.
The target of assay [16] is human polyclonal IgG (Gammanorm) (human). Kind of assay: SPR, ligand on chip; signal left after 96-100 CIP cycles 0.5 M NaOH.
Assay [17] shares this target. Kind of assay: SPR; ratio of remaining capacity to reference Zvar1.
The target in assay [18] is IgG1 monoclonal antibody (probe molecule in the Biacore kinetics). The assay is described as follows: SPR (Biacore), ligand on CM5 chip, IgG1 mAb as probe.
Assay [19] addresses human polyclonal IgG (Gammanorm) (human). Kind of assay: SPR; ratio to reference Zvar2.
Assay [20] has the same target. Kind of assay: column breakthrough, ligand 7.2 mg/ml; after 24 h 0.5 M NaOH.
For assay [21] the target is unchanged. Kind of assay: column breakthrough, agarose beads, ligand 7.2 mg/ml, 6 min residence.
For assay [22] the target is unchanged. The assay is described as follows: column breakthrough, ligand […]; after 24 h 1.0 M NaOH.
Assay [23] shares this target. Kind of assay: column breakthrough, agarose beads, ligand […], 6 min residence. The source holds these as a separate data set.
Assay [24] has the same target. Kind of assay: pH 6-3 citrate gradient elution; hexamer SEQ ID NO 33 on agarose; peak 1.
The target is the same in assay [25]. The assay is described as follows: pH 6-3 citrate gradient elution; hexamer SEQ ID NO 33 on agarose; peak 2.
The target is the same in assay [26]. Kind of assay: SPR; ratio to reference (the text names Zvar6).
Assay [27] shares this target. Kind of assay: column breakthrough, agarose beads, ligand 10.8 mg/ml, 6 min residence.
The target is the same in assay [28]. The assay is described as follows: column breakthrough, ligand 10.8 mg/ml; after 24 h 0.5 M NaOH.

On to “Zvar(N11K,H18K,S33K,D37E,A42R,N43A,L44I,K50R,L51Y)4 with an additional N-terminal cysteine (designed binder)”, for which the Remaining IgG capacity Qb10 after six 4 h cycles was found to be 48.1 mg/mL in assay [1] and 52 mg/mL in assay [5]. For the same substance, the Remaining IgG capacity after six 4 h cycles (%) in assay [1] stood at 77%; in assay [5], 92%. For the same substance, the Capacity retention relative to ref. after six 4 h cycles in [2] is 1.44; in assay [3], 1.53. The figures for the Initial IgG capacity Qb10 in assay [4] and in [6] were 62.1 mg/mL and 56.3 mg/mL, respectively.

As for “Zvar(Q9A,N11E,N28A,N43A)4 (designed binder)”, in [7], the Remaining capacity 100 cycles (%) is 80%, the Remaining capacity 200 cycles (%) worked out at 62% and the Remaining capacity 300 cycles (%) came out at 42%. Moreover, the Capacity relative to ref. 100 cycles in [8] amounted to 2.04. In [9], the Capacity relative to ref. 100 cycles came to 1.19, the Capacity relative to ref. 200 cycles was 1.72 and the Capacity relative to ref. 300 cycles is 2.62. In [10], the Remaining capacity 100 cycles (%) was determined as 55%.

For the substance “Zvar(Q9A,N11E,N28A,N43A)4 with an additional N-terminal cysteine (designed binder)”, the Remaining IgG capacity Qb10 after six 4 h cycles in assay [11] amounted to 46.2 mg/mL; in assay [12] it was 44.1 mg/mL. Besides, the Remaining IgG capacity after six 4 h cycles (%) in assay [11] is 93%; in assay [12], 90%. Besides, the Initial IgG capacity Qb10 is 49.1 mg/mL in [13] and 50 mg/mL in assay [14].

Take “Zvar(Q9A,N11E,Q40V,A42K,N43A,L44I)1 (designed binder)”: in [15], the koff was 0.000437 s⁻¹. Also, the Capacity after 96-100 cycles in [16] came to 66%. Further, in assay [17], the Capacity relative to reference was determined as 1.4. For the same substance, in assay [18], the pKd was 8.97 and the kon came to 410000 M⁻¹ s⁻¹.

Turning to “Zvar(Q9A,N11E,Q40V,A42K,N43A,L44I)2 with K4, F5, D6, K7 and E8 in linker deleted (designed binder)”, in [19], the Capacity relative to ref. 100 cycles amounted to 1.3. The substance also registered a Remaining capacity 100 cycles (%) in assay [7] of 70%.

Consider “Zvar(Q9A,N11E,Q40V,A42K,N43A,L44I)2 with K58, V1 and D2 in linker deleted (designed binder)”, for which, in assay [19], the Capacity relative to ref. 100 cycles was found to be 1.38. Also, in assay [7], the Remaining capacity 100 cycles (%) turned out to be 76%.

Consider “Zvar(Q9A,N11E,Q40V,A42K,N43A,L44I)2 with P57, K58, V1, D2 and A3 in linker deleted (designed binder)”, for which the Capacity relative to ref. 100 cycles in assay [19] stood at 1.35. The substance further yielded a Remaining capacity 100 cycles (%) in assay [7] of 74%.

Turning to “Zvar(Q9A,N11E,Q40V,A42K,N43A,L44I)2 with V1, D2 and A3 in linker deleted (designed binder)”, in assay [19], the Capacity relative to ref. 100 cycles stood at 1.39. Further, the Remaining capacity 100 cycles (%) in assay [7] was determined as 75%.

As for “Zvar(Q9A,N11E,Q40V,A42K,N43A,L44I)2 with V1, D2, A3, K4, F5, D6, K7 and E8 in linker deleted (designed binder)”, in assay [19], the Capacity relative to ref. 100 cycles was 1.13. Besides, the Remaining capacity 100 cycles (%) in assay [7] was 62%.

Consider “Zvar(Q9A,N11E,Q40V,A42K,N43A,L44I)2 with YEDG inserted in linker between K58 and V1 (designed binder)”, for which the Capacity relative to ref. 100 cycles in [19] came out at 1.31. In [7], this substance displayed a Remaining capacity 100 cycles (%) of 72%.

In assay [7], “Zvar(Q9A,N11E,Q40V,A42K,N43A,L44I)4 (designed binder)” yielded a Remaining capacity 100 cycles (%) of 90%, a Remaining capacity 200 cycles (%) of 74% and a Remaining capacity 300 cycles (%) of 57%. Also, the Capacity relative to ref. 100 cycles in [8] is 2.07. In [9], the Capacity relative to ref. 100 cycles was determined as 1.34, the Capacity relative to ref. 200 cycles turned out to be 2.06 and the Capacity relative to ref. 300 cycles worked out at 3.56. The Remaining capacity 100 cycles (%) in assay [10] turned out to be 56%.

In the case of “Zvar(Q9A,N11E,Q40V,A42K,N43A,L44I)4 with an additional N-terminal cysteine (designed binder)”, the Capacity retention relative to ref. after six 4 h cycles in assay [2] amounted to 1.67; in assay [3] (ligand content 7.2 mg/ml), 1.5. The results for the Remaining IgG capacity Qb10 after six 4 h cycles in [11], in [20] and in assay [22] were 53.6 mg/mL, 44.2 mg/mL and 56 mg/mL, respectively. Further, the Remaining IgG capacity after six 4 h cycles (%) in assay [11] was 95%; in [20], 90%; in assay [22] it was 93%. Moreover, the Initial IgG capacity Qb10 stood at 56.3 mg/mL in assay [14], 49 mg/mL in assay [21] and 60.3 mg/mL in assay [23].

“Zvar(Q9A,N11E,Q40V,A42K,N43A,L44I)6 (designed binder)” showed a Remaining capacity 100 cycles (%) in assay [7] of 87%. Besides, the Elution pH in assay [24] turned out to be 4.24 pH; in assay [25], 3.81 pH. For the same substance, the Capacity relative to ref. 100 cycles in [26] was determined as 1.3.

In assay [7], “Zvar(Q9A,N11E,Q40V,A42K,N43E,L44I)4 (designed binder)” yielded a Remaining capacity 100 cycles (%) of 84%, a Remaining capacity 200 cycles (%) of 65% and a Remaining capacity 300 cycles (%) of 48%. Moreover, the Capacity relative to ref. 100 cycles in assay [8] was found to be 2. In addition, in [9], the Capacity relative to ref. 100 cycles turned out to be 1.25, the Capacity relative to ref. 200 cycles amounted to 1.81 and the Capacity relative to ref. 300 cycles is 3. This substance showed a Remaining capacity 100 cycles (%) in [10] of 54%.

For the substance “Zvar(Q9A,N11K,H18K,D37E,A42R)4 with an additional N-terminal cysteine (designed binder)”, the Initial IgG capacity Qb10 in assay [27] was 56.9 mg/mL. For the same substance, in assay [3], the Capacity retention relative to ref. after six 4 h cycles is 1.3. In assay [28], this substance registered a Remaining IgG capacity Qb10 after six 4 h cycles of 52.5 mg/mL and a Remaining IgG capacity after six 4 h cycles (%) of 92%.

(Values after US20200283475A1.)
